Tested on: GST fusion recombinant OCT4 protein

In the case of GST fusion recombinant CSNK2A1, the “in vitro kinase assay, OCT4 phosphorylation read by SDS-PAGE and western blotting” value is reported as “in the presence of OCT4 and CSNK2A1, OCT4 phosphorylation was recognized by a phosphorylated antibody”.
